Results taken from article PMC2770954.
Values joined by “and” are separate entries in the source; they are usually repeats but may differ in a detail not shown here. Equal values may be shown once.

How the values were obtained:
[1] = target: p66^S3C/C38V/C280S labeled with A488 (HIV-1); assay: FRET or BRET
[2] = target: HIV-1 reverse transcriptase p66 subunit (wild type) (HIV-1) (UniProt P03366); assay: pre-steady-state activity assay
[3] = target: HIV-1 reverse transcriptase p66 subunit (wild type) (HIV-1) (UniProt P03366); assay: intrinsic tryptophan fluorescence kinetics
[4] = target: HIV-1 reverse transcriptase p51 p51 (Human immunodeficiency virus 1) (UniProt O93215); conditions: cited from earlier work
[5] = target: HIV-1 reverse transcriptase p66 p66 (Human immunodeficiency virus 1) (UniProt O93215); conditions: cited from earlier work
[6] = target: p66^S3C/C38V/C280S labeled with QSY9 (HIV-1); assay: FRET or BRET

Work on “p51^S3C/C38V/C280S labeled with QSY9 (natural protein)” yielded a kobs (0.5 µM p66-A488, 0.5 µM p51-QSY9) [1] of 4.1e-06 s⁻¹, a kobs (0.5 µM p66-A488, 1.5 µM p51-QSY9) [1] of 4.8e-06 s⁻¹ and a kobs (0.5 µM p66-A488, 2.0 µM p51-QSY9) [1] of 5.7e-06 s⁻¹. For the same substance, the kobs (0.5 µM p66-A488, 2.5 µM p51-QSY9) [1] was 7.1e-06 s⁻¹, the koff [1] was 2.5e-06 s⁻¹ and the kon [1] was 1.6 M⁻¹ s⁻¹ and 1.8 M⁻¹ s⁻¹.
In the case of “HIV-1 reverse transcriptase p51 subunit (wild type) (from UniProt P03366 600-1039) (natural protein)”, the kobs (0.5 µM p66, 0.5 µM p51) [2] is reported as 5.8e-06 s⁻¹, the kobs (0.5 µM p66, 2.5 µM p51) [2] is reported as 7.8e-06 s⁻¹ and the kdiss(1), slower major component of the two-exponential fit [3] is reported as 3.6e-06 s⁻¹. It also gave a kdiss(2), faster minor component of the two-exponential fit [3] of 7.6e-05 s⁻¹ and a kobs (0.5 µM p66, 0.5 µM p51) [3] of 5.4e-06 s⁻¹.
In the case of “HIV-1 reverse transcriptase p66 p66 (from UniProt O93215)”, the Kd [4] is given as 310 nM and the Kd [5] is given as 4200 nM.
Work on “p51^S3C/C38V/C280S labeled with A488 (natural protein)” yielded a kobs (0.5 µM p66-QSY9, 0.5 µM p51-A488) [6] of 3.4e-06 s⁻¹ and a koff [6] of 1.9e-06 s⁻¹.
